Experimental data as given in the Human Domainome abundance scans (Beltran et al. 2025).

B1: Protein S100-G, residues 1 to 79; numbered along this chain, P02633 (parent)
chain: MSAKKSPEELKGIFEKYAAKEGDPNQLSKEELKLLLQTEFPSLLKGPSTLDELFEELDKNGDGEVSFEEFQVLVKKISQ
B2: Nuclear receptor subfamily 1 group D member 2, residues 103 to 171; numbered along this chain, Q14995 (parent)
chain: CKVCGDVASGFHYGVHACEGCKGFFRRSIQQNIQYKKCLKNENCSIMRMNRNRCQQCRFKKCLSVGMSR

Variants of: B1
Experiment: abundance fitness (aPCA) (normalised: wild type 0, dead -1); higher = more abundant; growth selection in yeast, the domain comes from the species named
Conditions: Bos taurus

Abundance fitness, by site and new letter:
A3: W -0.178; P -0.137; I 0.077; K -0.133; C 0.061; L 0.007; F 0.103; T -0.053; H -0.049; G -0.09; D 0.066; E -0.095; M 0.013; S -0.123; N 0.03; V 0.129; Q -0.01
A18: E -0.904; D -0.846
G12: M -0.002; I 0.088; Q -0.059; T 0.068; W -0.082; N 0.001; D 0.067; V 0.031; K 0.029; H 0.064; P -0.048; R 0.046; Y -0.045; L -0.009; F -0.01; E -0.165
F14: P -1.33; Q -1.29; W -0.088; Y 0.028; I -0.504; R -1.37; L -0.73; C -1; S -1.22; A -0.98; E -1.32; T -1.33; H -0.971; M -0.589; K -1.18; V -0.729; D -1.23; G -1.53; N -1.2
E9: H -0.094; N -0.03; G -0.108; P -0.211; D 0.063; I -0.111; L -0.073; V -0.062; F -0.128; R -0.179; A -0.132; T -0.073; K -0.061; C -0.177; Q 0.055; Y -0.023; S -0.073; M -0.035
S6: A -0.227; E -0.159; N -0.161; C -0.398; L -0.15; V -0.203; T -0.03; G -0.103; D -0.071; K -0.204; Y -0.264; Q -0.076; W -0.372; R -0.232; F -0.054; M -0.111; I -0.121; H -0.119
I13: P -0.424; V -0.123; M 0.053; S -0.26; E -0.386; K -0.173; R -0.409; T -0.17; G -0.959; H -0.287; F -0.201; L -0.03; C -0.093; Q -0.219; N -0.631; D -0.436; W -0.231
E8: F -0.079; C -0.361; I -0.029; S -0.106; K -0.004; G -0.049; W -0.243; P -0.163; V -0.051; L -0.029; A -0.054; D -0.125; Y -0.101; T -0.046; H -0.148; Q 0.033; N -0.11; M 0.014; R -0.048
Y17: C -0.295; V -0.345; F -0.008; S -0.45; N -0.433; L -0.332; M -0.168; W -0.017; R -0.429; E -0.425; K -0.519; H -0.067; Q -0.379; A -0.129; P -1.25; T -0.444; D -1.1; G -0.521
M1: H -1.42; V -0.313; N -0.186; D -0.392; K -0.245; F -0.193; L -0.378; S -0.368; W -0.667; Y -0.501; I 0.027; R -0.631; E -0.552; G -0.267; P -1.34; A -0.572; Q -0.678
E15: G -0.062; F 0.016; I 0.078; H 0.018; W -0.048; P -0.722; T 0.065; N -0.042; Y 0.077; C -0.152; V -0.044; K -0.031; D -0.047; S -0.009; Q 0.024; M 0.058; A -0.039
L10: Q -0.104; E -0.202; T -0.174; N -0.31; S -0.221; I -0.039; F -0.048; P -0.383; K -0.401; H -0.155; A -0.09; D -0.322; C -0.536; M 0.044; R -0.488; V -0.081; Y -0.038; W -0.076
K11: L -0.096; M -0.151; F 0.023; P -0.373; G -0.176; T -0.197; I -0.002; C -0.202; R -0.185; Y -0.124; H -0.14; A -0.157; D -0.369; Q -0.04; W -0.294; E -0.063
P7: S 0.02; R -0.079; V -0.058; H -0.067; E 0.037; L 0.013; W -0.09; G -0.121; D -0.119; Y 0.063; M 0.058; N -0.056; K -0.062; F -0.066; C -0.021; T 0.066
K5: Q -0.222; R -0.154; C -0.252; N -0.063; T 0; M -0.017; P -0.253; A -0.037; S -0.03; V -0.126; Y 0.025; F -0.015; I 0.045; W -0.575; E -0.105; H -0.163
S2: A -0.138; V 0.085; T 0.102; N 0.094; M 0.279; K 0.225; W -0.118; F 0.073; D 0.116; I 0.144; P -0.699; E -0.105; L -0.015; H -0.09; G 0.039; Q 0
K16: I -0.184; W -0.176; T -0.087; Q -0.122; H -0.101; F -0.087; E -0.105; R -0.082; A -0.058; Y -0.102; M -0.145; D -0.18; V -0.179; S -0.042; N -0.07; P -0.34; G -0.213; L -0.031; C -0.12
K4: W -0.343; F 0; M -0.023; Y 0.01; P -0.097; S -0.005; G -0.223; C -0.222; D 0.092; A -0.337; V -0.145; T 0.06; L 0.051; N 0.067; E -0.154; H -0.004; Q -0.06

Variants of: B2
Experiment: as above
Conditions: Homo sapiens

Abundance fitness, by site and new letter:
S68: T -0.018; P -0.768; E -0.087; N 0.186; F -0.561; C -0.097; R -0.354; L -0.584; M -0.023; A 0.029; D -0.049; V -0.526; I -0.111; H -0.347; K -0.01; G -0.125; Q 0.314
M67: T -0.822; V -0.794; W -0.415; Y -0.558; S -0.925; R -0.241
R69: S 0.176; L 0.143; W 0.288; Y -0.083; F 0.483; V 0.327; E 0.008; G 0.112; Q 0.07; D -0.404; A 0.233; C -0.013; T 0.451; M 0.318; P 0.28
